One block for each molecule: values may come before it.
Columns and labels:
[1] = biological target: T1, LTC4 synthase (Homo sapiens, UniProt Q16873); conditions: LTC2-X-biotin:streptavidin-agarose column
T1 sequence (Q16873 1-150): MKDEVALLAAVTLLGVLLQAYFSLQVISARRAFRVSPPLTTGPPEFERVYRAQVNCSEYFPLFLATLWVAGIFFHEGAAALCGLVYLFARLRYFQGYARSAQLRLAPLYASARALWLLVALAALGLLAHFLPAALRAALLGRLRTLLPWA

[2] = biological target: T1, LTC4 synthase; test: Measurement of LTC4 synthase activity (LTC4 formation from LTA4 and reduced glutathione, reverse-phase HPLC); type: biochemical; parameters: endogenous in cells; host or cells: THP-1 cells; some values from human lung tissue
Method: The mixtures were allowed to stand for a minimum of 30 min. at 4° C. (or overnight). […] The bulk of the resulting supernatant (250 μl) was then transferred to sample vials for reverse-phase HPLC of which 200 μl was injected for analysis.
Analysis of LTC4 Formation by Reverse-Phase HPLC--The reaction products formed in the incubation mixtures described above were resolved by isocratic reverse-phase HPLC on a Waters Associates Novapak C18 column (3.9×150 mm, 4μ particle size). The mobile phase was acetonitrile:methanol:water:acetic acid at 54:14:28:1 adjusted to pH 5.6 with 10 NaOH and was pumped at a flow rate of 1.0 mL/min. LTC4 was quantified by on-line measurement of the optical density at 280 nm. The LTC4 peak was identified by its retention time compared to a synthetic standard (normally 10 min.).

[3] = Longevity of LTA4 free acid in mock incubation mixtures under aqueous conditions; type: physicochemical; conditions: mock incubation mixtures with 0.05% (w/v) bovine serum albumin and potassium phosphate buffer
From the text: Hydrolysis of LTA4 Methyl Ester--The methyl ester of leukotriene A4 was hydrolyzed to the free acid essentially as described by Carrier, D. J. et al., Prostaglandins Leukot. Essent. Fatty Acids, 34, 27-30 (1988). The hydrolysis was monitored by determination of LTA4 by reverse-phase HPLC at pH 10 (Wynalda, M. A. et al., Anal. Chem., 54, 1079-1082 (1982)) except that LTA4 and LTA4 -methyl ester were eluted by a gradient of 20 to 70% (v/v) acetonitrile in borate buffer instead of isocratically as described in Wynalda et al. LTA4 -methyl ester (1.0 mg in hexane) was dried under a stream of nitrogen and then dissolved in 4 mL of 0.25 M NaOH:acetone (2:8 v/v). Following incubation for 60 min. at 25° C., the hydrolysis mixture was portioned into aliquots that were stored at -80° C. (up to 1 month). Following this procedure, the recovery of LTA4 free acid was >95% as confirmed by analysis of the hydrolysis products by reverse-phase HPLC under alkaline conditions (Wynalda et al.).

[4] = biological target: T2, THP-1 microsomal membrane protein (Homo sapiens, UniProt Q16873); test: Photoaffinity labelling of THP-1 cell membranes; type: binding; conditions: 20 pM ligand, 0.3 mg THP-1 microsomal membrane protein, SDS-gel autoradiography
T2 construct: 0.3 mg of THP-1 microsomal membrane protein; endogenous in cells; host or cells: THP-1 cells (microsomal membranes)
T2 sequence (Q16873 1-150): T1 sequence (Q16873 1-150)
Method: The mixtures were incubated in 1.5 mL microcentrifuge tubes for 30 min. at 25° C. then transferred to 35 mm diameter cluster plate wells for photolysis. The samples in cluster plates were cooled for 5 min. at 4° C. then illuminated from above with a 40W ultraviolet light source (Phillips, λmax =350 nm) at a distance of 5 cm for 2 min. at 4° C. The samples were then transferred back into 1.5 mL microcentrifuge tubes and the membranes were re-isolated by centrifugation for 15 min. at 200,000×g. The resulting pellets were dissociated in SDS-containing sample buffer, denatured at 95° C. for 5 min. and then the proteins were resolved by SDS-gel electrophoresis. Radioactive bands in the dried gels were visualized by autoradiography and quantified by laser densitometry.

[5] = substrate: CCCCCC=CCC=CC=CC=CC1OC1CCCC(=O)O; test: purified protein, by the assay type; type: biochemical, human; conditions: 25.0 °C
[6] = substrate: N[C@@H](CCC(=O)N[C@@H](CS)C(=O)NCC(=O)O)C(=O)O; test: purified protein, by the assay type; conditions: 25.0 °C
[7] = purification fractions from 2×10^11 THP-1 cells
[8] = other: THP-1 cells LTC4 synthase
[9] = other: human monocytes LTC4 synthase

Molecule: [Cl-].[Na+] [NaCl]
- effect on LTC4 synthase binding to the affinity resin [1]: inhibited LTC4 synthase binding to the affinity resin

- Preferred substrate [2]: LTA4 free acid >> LTA4 methyl ester
- half-life [3]: approximately 30 min.
Molecule: CCCCCC=CCC=CC=CC=CC1OC1CCCC(=O)O (stereo not shown) [LTA4, leukotriene A4, reference compound]

- Preferred substrate [2]: LTA4 free acid >> LTA4 methyl ester
Molecule: CCCCCC=CCC=CC=CC=CC1OC1CCCC(=O)OC (stereo not shown) [LTA4 methyl ester, methyl ester of leukotriene A4, reference compound]

Molecule: N[C@@H](CCC(=O)N[C@@H](CS)C(=O)NCC(=O)O)C(=O)O [GSH, Reduced glutathione, reference compound]
- effect on LTC4 synthase binding to the affinity resin [1]: inhibited LTC4 synthase binding to the affinity resin

Molecule: CCCCC/C=C\C\C=C/C=C/C=C/[C@@H](SC[C@H](NC(=O)CC[C@H](NC(=O)CCCCCNC(=O)c1cc([125I])c(N=[N+]=[N-])cc1O)C(=O)O)C(=O)NCC(=O)O)[C@@H](O)CCCC(=O)O [Azido^125 I LTC4]
- photoaffinity radiolabelling of membrane polypeptide [4]: specifically radiolabelled a single membrane polypeptide

- Activity [2, 7]: 1.378 nmol · min^-1 .multid
- Spec. Activity [2, 7]: 4135 nmol · min^-1 .multid
- Rel. Spec. Activity ([2]; relative to specific activity in harvested cells set at 1.00): 27,384
B1: LTC4 synthase (Homo sapiens) (protein)
chain: T1 sequence (Q16873 1-150)
notes: endogenous in cells; host or cells: THP-1 cells; some values from human lung tissue
- Km [5, 8]: 9.89 µM
- Km [5, 9]: 5.6 µM
- Km [6, 8]: 1670 µM
- Km [6, 9]: 1200 µM
